Earlier results on 1 substance are cited in article PMC9222382.

The data set deals with IL-10Rα (Homo sapiens) (UniProt Q13651).
Chain of UniProt Q13651 (Q13651 22-235): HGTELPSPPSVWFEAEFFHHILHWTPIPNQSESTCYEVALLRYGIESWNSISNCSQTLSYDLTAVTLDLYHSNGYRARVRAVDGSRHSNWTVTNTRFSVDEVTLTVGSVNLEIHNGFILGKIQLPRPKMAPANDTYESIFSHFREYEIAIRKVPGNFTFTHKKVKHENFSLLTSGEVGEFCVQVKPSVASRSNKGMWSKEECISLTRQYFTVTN

As for IL-10 (from UniProt P22301), the dissociation constant (Kd) (usually the concentration at which binding is half-saturated) is 1 nM.
